Data taken from PMC7259690.

Target: 10042.05.SOSIP trimer (recombinant HIV-1 Env trimer 10042.05 from subject VC10042, cleaved SOSIP form) (HIV-1)
Test: SEC + native gel or EMSA; Superdex 200 16/600 pg SEC after lectin and ion exchange steps; fractions and final preparation on blue native PAGE; analytical SEC as QC

Q: Which stoichiometry N does the source give for “10042.05.SOSIP trimer (recombinant HIV-1 Env trimer 10042.05 from subject VC10042, cleaved SOSIP form) (complex)” here?
A: Its stoichiometry N is 3.
